# Test results: the RNAGym collection of RNA variant scans (doi:10.1073/pnas.2313332121)
# Fewer inactive variants are shown than the library holds.
# B1: TPR 5TU (parent)
# chain: GGAUCUUCUCGAUCUAACAAAAAAGACAAAUCUGCCACAAAGCUUGAGAGCAUCUUCGGAUGCAGAGGCGGCAGCCUUCGGUGGCGCGAUAGCGCCAACGUUCUCAACUAUGACACGCAAAACGCGUGCUCCGUUGAAUGGAGUUUAUCAUG
# Variants of: B1
# Assay: polymerase ribozyme fitness, log enrichment relative to wild type (log ratio); higher = more active; in vitro selection for triplet polymerase activity
# How it was run: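 The heterodimeric triplet polymerase ribozyme's subunits were each mutagenized into PCR-built libraries and transcribed. Every library was selected once, in triplicate, by annealing with a biotinylated primer, the partner subunit and triplets, incubating frozen at −7 °C, gel-excising extended constructs, capturing on streptavidin beads and running RT-PCR. Input and output libraries were Illumina-sequenced, with genotypes kept only at ≥10 input reads and ≥1 read per output. Fitness, from inverse-variance-weighted replicate averages, is the base-2 logarithm of genotype enrichment over wild-type enrichment.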
row,Variant,polymerase ribozyme fitness (log ratio)
1,U7G U55A A91U U130A G141C,≤ -4.2
2,U7C C85G,-3.47
3,U7C C85U,-2.04
4,U6G C57A U102G,-1.76
5,C5U C35U U77G C85G A89U A110C U144G,≤ -4.2
6,U6A A64U A66G G84A,≤ -4.2
7,U6A A21U U55A,-0.47
8,U6A C108U U134C,-3.33
9,C5U A20U G50C G81A G117A C132U,≤ -4.2
10,C5G U53G G92A C103A U111G A120U,≤ -4.2
11,C8A A12C G42C C72U G86A,≤ -4.2
12,U6C C76G G124U G128U,≤ -4.2
13,U6C A26U C35A A73G C75U C93A C116A A138C,≤ -4.2
14,U7A A22U U44A C51U G67A G94C C99U G141C,≤ -4.2
15,U6A U9A G92C C114A C118U C123G,≤ -4.2
16,C8A G70C A89G G94C C116A A137G,≤ -4.2
17,U7A C32U C35U U90C G141C G143C,≤ -4.2
18,U7A G42A C85U A113U C116U C125G,≤ -4.2
19,C5U U13G A22U U55A G65U G70U C87A C95U A98G A137C G141A G143C,≤ -4.2
20,C5U U6A C57U G67C G71A U82G C87G U104A U139G A142G,≤ -4.2
21,U6G G46U G88C U134A A138G,≤ -4.2
22,U7A A17U G25C G88C C116A,≤ -4.2
23,U6C C27G C32A U53A A142U C149G,≤ -4.2
24,C5U G62C G88C,≤ -4.2

row,Variant,polymerase ribozyme fitness (log ratio)
1,U6G A40U A115G,-1.66
2,U7G U55A,-3.28
3,U7G U31A C57U G94C U135C G140U U148C,≤ -4.2
4,U6G A73G C87U G136U,-2.92
5,C5U C14G G59C C63U C85U U101G,-3.47
6,U6G U15A A20G C87U,-0.616
7,U6G A16U C38U G83C U139A G141A,≤ -4.2
8,U7A A40C C54A G59C C87U,≤ -4.2
9,C5U A19G U135C G141U,-3.73
10,U6G A16G C85U C125A,-1.05
11,U7A U9G,-3.64
12,C8A C96A A110U U111G,≤ -4.2
13,C8A C36U G62U C95G A115U,≤ -4.2
14,U7C U53G G94A,≤ -4.2
15,U7A G11A C32U C35G A41U U55A C87G C95A C114U,≤ -4.2
16,C5G U45C,-1.55
17,U7G A41U U53A C54U U56A C57A G71U C95A G112C,≤ -4.2
18,U7G C18U A30U G59U U77A G83C A138C,≤ -4.2
19,C5U A21G U139C U146A,-3.99
20,C8A C79U A120C C125G A142U U146C,≤ -4.2
21,U6G U9G U31A G48A C76G C87A U111C G140U,≤ -4.2
22,C5U A40G C85G,-3.18
23,C8A A19C C72A C95A C96G C131U G136C,≤ -4.2
24,C5U C69A,-2.55

row,Variant,polymerase ribozyme fitness (log ratio)
1,U6A C57U A60U C99U U111G G126U C129G,≤ -4.2
2,U7A C96U,-2.73
3,U6G A22U C87U,0.101
4,C5U A28U C51G C75G C95U G141U,-4.02
5,U7C A12U,-2.57
6,U7G C93U A98G G141A,-3.82
7,U6A A24U A60G,0.116
8,U6G C35U G58C A73G G140U,≤ -4.2
9,U6C C32U C54A,-4
10,U6C C10G A28U C57U C63U U77A C85U G86U U144C,≤ -4.2
11,U6C G50C G59A G68U A137C,≤ -4.2
12,U6C C38U A121U U127A G128U,-4.07
13,C5U C63G A73G G81C C105U A115C A138C,≤ -4.2
14,C8A G50U C76U G83A C116G C131A U145C,≤ -4.2
15,U6A U139C,-3.88
16,U6A A17C A52U G84U A89C G141A,-3.87
17,U7G G25A A28U C54A C85U U148G C149U,≤ -4.2
18,C5U C14U A26U C118G A121U,-3.94
19,U7C G50A G58A G68A A97C G141C U146A,≤ -4.2
20,U7A C93U A115G,≤ -4.2
21,C5U U31C A37U C76G U109C U135C,≤ -4.2
22,U6C A40C G50U A97U U104A G124C U130A,≤ -4.2
23,U6G A20C C38U C57U U61A C76G G94C A97G U145G,≤ -4.2
24,C8A A29C A37C A47U A119G,≤ -4.2

row,Variant,polymerase ribozyme fitness (log ratio)
1,U7A C14G U31C G86A,≤ -4.2
2,C8A C96A,-3.5
3,U6G C93A A98G,-1.61
4,U6C G71A G92A A97G G141U,≤ -4.2
5,U6A A115U G141U,-1.01
6,U6A U45A,-2.51
7,U6G C38U C43U A91U C95G U102G,≤ -4.2
8,C5U A16U C54U C87U G117A A119U,-1.75
9,C8A U15A A19U A28U A30U C38A A39C A40U G59U C99G A107U C114U,≤ -4.2
10,U6A C125G,-0.431
11,U6A A26G A64C C87U A89C U146C,≤ -4.2
12,U7C C38A,-2.38
13,C8A U15C C75A U109C,≤ -4.2
14,U6A A20C A49U A52C C79U C93A C118G,≤ -4.2
15,C5U A19U G83U G92U C123A G126U U146G,-4.19
16,C5U G81U C87A A107G U144G,≤ -4.2
17,C8A G67U U77A G83U C87G U134A G141C U144G,≤ -4.2
18,U6A A22C A39U U44A G70A C99A,≤ -4.2
19,C8A C85U C116U G141A,≤ -4.2
20,U6G U31G A73G G86A A137U,≤ -4.2
21,C8A C57A G74A C118U,≤ -4.2
22,C5G U55G A73U,-3.69
23,U6G A12C C35G A60C C75G A110G,≤ -4.2
24,U7A A64U G74A C79A C85A G94U U130G,≤ -4.2

row,Variant,polymerase ribozyme fitness (log ratio)
1,U6G A40C U144A,0.287
2,U7C C38U G62C,-3.44
3,U6A C35U C95G G100A,≤ -4.2
4,U6C A26G A29U A73G C96A U104G,-3.88
5,U6C C14A A49U G50U A52G C93G C99G,≤ -4.2
6,C5U A19G A21G A29G C87G C95G,≤ -4.2
7,U6A A19G C99A,-2.14
8,U6C C10A C14G A49C C57U A91C C114U,≤ -4.2
9,U7G A20C C38A G83A,-3.16
10,U6G U7C A49G G71A C93G,≤ -4.2
11,C8A U13G A30U U82A U101G,≤ -4.2
12,U6G G92U C105A C114G A142U,≤ -4.2
13,U6G G50U G83C A120U,-0.29
14,C8A A28C A30G C96A U127G,≤ -4.2
15,U7C G50U,-2.42
16,C8G,-2.95
17,C8A,-2.84
18,C5U A20G A49U G86U,-3.71
19,U6G A47G U53G U55A C76G C85G C103G G128U C129A U145G,≤ -4.2
20,U7C U13G A20C U31A C51U U53G C87G A89G C93U U139C A142U G143U G152A,≤ -4.2
21,U7G C27U A37G C43A C57A G94A,≤ -4.2
22,U6A U33A U55G C57U C79G G92A C131U,≤ -4.2
23,U6A A12U U15C A137C,-3.12
24,C8A A12G U13G C51A C57A G92U G124C U144C,≤ -4.2

row,Variant,polymerase ribozyme fitness (log ratio)
1,U6A C57U A98G,-0.654
2,U7G A23C A47C U53A C116A,≤ -4.2
3,U6G U33A G42U C57U A64C C85G A107G G117C,≤ -4.2
4,C8A C38U C57U C79G C96G,≤ -4.2
5,U7A A30U C32U C43U A60U C96A A107U,-3.92
6,U6G C57A U61A G65A A121U G126A,-3.12
7,U6G G62C U82G,-0.631
8,C8A C14G A21G G25A U45C C75A G81U C85G C87G,≤ -4.2
9,C5U A21U G84A C131A,-2.96
10,U6G A21U C93U U127G,-3.85
11,U6A A26U U53G C103A U109C,≤ -4.2
12,C5U A41U G50A,-2.81
13,C8A G86A C87U A138U,≤ -4.2
14,U6A U9G C14G G83C G112U G136C,≤ -4.2
15,C5G U139A,-3.99
16,U6G A73G,-0.521
17,U6G A73C,-2.87
18,C8A G141A,-3.13
19,U6C U31C A119G,-0.646
20,U7A A37G A47C G59C C72U G84C G88A C108A G141C,≤ -4.2
21,C5U U139G,0.221
22,C5U A26U,-1.04
23,C8A C76A G88U G94U C132G U139C,≤ -4.2
24,U7A C32G U33C C87A C96U U101C C116A U145G U146C,≤ -4.2

row,Variant,polymerase ribozyme fitness (log ratio)
1,C8A G83C C85G G140C A150C,≤ -4.2
2,U7A A29C A41U G94C,≤ -4.2
3,U6G A19G U44A U82C C95U U139G,≤ -4.2
4,U7A C54A G58C G92C A107U C116A,≤ -4.2
5,U6A C118G,-1.66
6,U6C A21U C85U,-0.501
7,U6G A142U,-0.0461
8,U7A C87U C96A A150U,-3.72
9,U6A C18U A49C C79A A91G U101C C103A,≤ -4.2
10,U6G A26U A37C G50C U53A C57A U82G C103G,≤ -4.2
11,U6G A12U A22C G59C U61G A73U,≤ -4.2
12,C8A C36A G68C C96U C99A G128C,≤ -4.2
13,U7G C87U,-3.04
14,C8A A41U C76U A98G C116G G143C,≤ -4.2
15,U6G G94A A115C,-1.5
16,C5U U7G C14G A21C U56G C57A G58C C103A A142U U145C,≤ -4.2
17,U6A A24C A40U A52U C57A A98U A115C,≤ -4.2
18,U6G A16G A24C U145C,≤ -4.2
19,U6G A12U,-0.722
20,U6A A142C,-0.741
21,U7A A16U G58C G71C C93U A115C U134C,≤ -4.2
22,U6C A23U U31G G62A C95U C99G G100U C114U C129U,≤ -4.2
23,U6G C38A A41C C95U U104C G126U,-2.03
